Assay results from patent US20120082680A1 (Merck Sharp & Dohme, published 2012).
Where a chain is given by its changes, count along the chain named. Like-named read-outs stand apart in the source and are kept apart here.

Columns and labels:
Test in all cases: cell-based or functional assay
[1] = biological target: T1, V5-, His-tagged recombinant human PCSK9 protein (human, UniProt Q8NBP7 31-692)
[2] = biological target: T1, V5-, His-tagged recombinant human PCSK9 …; remark: listed apart in the source
[3] = biological target: T1, V5-, His-tagged recombinant human PCSK9 …; remark: listed apart in the source
[4] = biological target: T1, V5-, His-tagged recombinant human PCSK9 …; remark: listed apart in the source
[5] = biological target: T1, V5-, His-tagged recombinant human PCSK9 …; remark: listed apart in the source

T1 sequence (Q8NBP7 31-692 limits assumed): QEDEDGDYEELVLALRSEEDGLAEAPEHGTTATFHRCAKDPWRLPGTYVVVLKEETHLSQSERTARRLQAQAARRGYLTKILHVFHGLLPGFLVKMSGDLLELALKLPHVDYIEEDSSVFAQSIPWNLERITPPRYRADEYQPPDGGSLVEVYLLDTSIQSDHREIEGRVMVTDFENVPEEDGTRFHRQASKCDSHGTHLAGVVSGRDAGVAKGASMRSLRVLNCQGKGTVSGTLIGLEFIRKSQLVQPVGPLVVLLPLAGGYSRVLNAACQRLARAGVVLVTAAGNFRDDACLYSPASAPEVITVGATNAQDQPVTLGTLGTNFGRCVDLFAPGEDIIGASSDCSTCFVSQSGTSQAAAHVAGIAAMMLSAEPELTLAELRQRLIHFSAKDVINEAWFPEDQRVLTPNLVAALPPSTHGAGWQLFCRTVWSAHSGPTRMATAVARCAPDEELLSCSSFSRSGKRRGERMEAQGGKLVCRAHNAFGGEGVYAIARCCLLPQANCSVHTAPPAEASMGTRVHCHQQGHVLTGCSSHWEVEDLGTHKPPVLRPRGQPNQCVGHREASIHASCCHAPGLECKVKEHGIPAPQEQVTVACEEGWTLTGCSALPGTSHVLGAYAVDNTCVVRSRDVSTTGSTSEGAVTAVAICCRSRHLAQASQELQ

B1: 1CX1G08 (Fab, V domains shown)
VH: QVQLVESGGGLVQPGGSLRLSCAASGFTFSDYWVSWVRQAPGKGLEWVSFISYDGSSTYYADSVKGRFTISRDNSKNTLYLQMNSLRAEDTAVYYCARTYFEGVDVWGQGTLVTVSS
VL: DIELTQPPSVSVAPGQTARISCSGDNIGTYYVHWYQQKPGQAPVLVIYDDSNRPSGIPERFSGSNSGNTATLTISGTQAEDEADYYCGTWDNTSFNLVFGGGTKLTVLG
With B1 the “IC50 for reversing the PCSK9-dependent loss of cellular diI-LDL uptake (Exopolar assay; Fab titrated against PCSK9 fixed at 25 µg/ml)” value [1] was 0.267 µM.

B2: 3CX4B08 (Fab, V domains shown)
VH: QVQLVESGGGLVQPGGSLRLSCAASGFTFSNYTMNWVRQAPGKGLEWVSFISSSSSETYYADSVKGRFTISRDNSKNTLYLQMNSLRAEDTAVYYCARGYGDMVDLWGQGTLVTVSS
VL: DIELTQPPSVSVAPGQTARISCSGDSIPTYYVAWYQQKPGQAPVLVIYSDTDRPSGIPERFSGSNSGNTATLTISGTQAEDEADYYCQSFDNHGYHVFGGGTKLTVLG
B2 was tested, and the “IC50 for reversing the PCSK9-dependent loss of cellular diI-LDL uptake (Exopolar assay; Fab titrated against PCSK9 fixed at 25 µg/ml)” value [2] was 0.127 µM.

B3: 3CX2A06 (Fab, V domains shown)
VH: QVQLVQSGAEVKKPGESLKISCKGSGYSFSNFWIAWVRQMPGKGLEWMGIIDPSDSWTRYSPSFQGQVTISADKSISTAYLQWSSLKASDTAMYYCARGDGQDFDNWGQGTLVTVSS
VL: DIQMTQSPSSLSASVGDRVTITCRASQNINSYLNWYQQKPGKAPKLLIYAASSLQSGVPSRFSGSGSGTDFTLTISSLQPEDFAVYYCLQNYDLPNTFGQGTKVEIKR
In the case of B3, the “IC50 for reversing the PCSK9-dependent loss of cellular diI-LDL uptake (Exopolar assay; Fab titrated against PCSK9 fixed at 25 µg/ml)” value [3] is reported as 0.107 µM.

B4: 3CX3D02 (Fab, V domains shown)
VH: QVQLVQSGAEVKKPGESLKISCKGSGYSFTNSWIGWVRQMPGKGLEWMGIIYPSDSYTIYSPSFQGQVTISADKSISTAYLQWSSLKASDTAMYYCARGGGYYYALMDVWAQGTLVTVSS
VL: B3 VL with N28T, N30S, S31T, Y32W, V85T, N91D, Y92S, D93S, N96L
With B4 the “IC50 for reversing the PCSK9-dependent loss of cellular diI-LDL uptake (Exopolar assay; Fab titrated against PCSK9 fixed at 25 µg/ml)” value [4] was 0.269 µM.

B5: 3BX5C01 (Fab, V domains shown)
VH: QVQLVQSGAEVKKPGESLKISCKGSGYSFTSYGISWVRQMPGKGLEWMGMIDPSDSFTTYSPSFQGQVTISADKSISTAYLQWSSLKASDTAMYYCARGYYFTYALQPMDHWGQGTLVTVSS
VL: DIELTQPPSVSVAPGQTARISCSGDNLRDYIVHWYQQKPGQAPVLVIYDDSNRPSGIPERFSGSNSGNTATLTISGTQAEDEADYYCGFDNGGDIDVFGGGTKLTVLG
In the case of B5, the “IC50 for reversing the PCSK9-dependent loss of cellular diI-LDL uptake (Exopolar assay; Fab titrated against PCSK9 fixed at 25 µg/ml)” value [5] is reported as 1.25 µM.
